Test results published in the Human Domainome abundance scans (Beltran et al. 2025).
± gives the uncertainty stated by the source.

B1: Membrane-associated guanylate kinase, WW and PDZ domain-containing protein 1, residues 352 to 401; numbered along this chain, Q96QZ7 (parent)
chain: TEELDSELELPAGWEKIEDPVYGIYYVDHINRKTQYENPVLEAKRKKQLE
B2: Chromodomain-helicase-DNA-binding protein 5, residues 338 to 390; numbered along this chain, Q8TDI0 (parent)
chain: YETDHQDYCEVCQQGGEIILCDTCPRAYHLVCLDPELEKAPEGKWSCPHCEKE

Variants of: B1
Assay: abundance fitness (aPCA) (normalised: wild type 0, dead -1); higher = more abundant; growth selection in yeast, the domain comes from the species named
Settings: Homo sapiens

Variant	abundance fitness
E18F	-0.263 ± 0.067
E18A	-0.014 ± 0.069
A12Q	-0.237 ± 0.096
A12R	0.016 ± 0.041
A12V	0.019 ± 0.068
A12I	0.02 ± 0.072
A12M	-0.594 ± 0.15
A12K	-0.113 ± 0.11
A12D	-0.09 ± 0.12
A12F	0.107 ± 0.093
A12S	-0.038 ± 0.054
A12H	0.07 ± 0.1
A12W	-0.104 ± 0.048
A12Y	-0.38 ± 0.11
A12E	0.129 ± 0.052
A12P	-0.098 ± 0.073
A12C	0.12 ± 0.085
A12G	-0.073 ± 0.057
A12T	-0.145 ± 0.086
A12L	-0.003 ± 0.056
L4K	0.019 ± 0.059
L4I	0.349 ± 0.11
L4E	-0.239 ± 0.044
L4G	-0.102 ± 0.059
L4S	-0.037 ± 0.06
L4N	-0.333 ± 0.14

Variant	abundance fitness
L4R	0.103 ± 0.058
L4C	-0.593 ± 0.071
L4A	-0.101 ± 0.075
L4H	0.202 ± 0.095
L4F	-0.051 ± 0.097
L4T	-0.021 ± 0.082
L4Q	-0.067 ± 0.081
L4V	-0.064 ± 0.064
L4W	-0.237 ± 0.073
L4D	-0.682 ± 0.14
L4Y	-0.444 ± 0.29
E9R	-0.179 ± 0.044
E9A	0.105 ± 0.044
E9H	-0.095 ± 0.1
E9Q	-0.137 ± 0.1
E9M	-0.079 ± 0.073
E9V	-0.126 ± 0.061
E9K	-0.078 ± 0.057
E9D	-0.017 ± 0.1
E9W	-0.497 ± 0.089
E9C	-0.149 ± 0.072
E9I	-0.312 ± 0.13
E9F	-0.441 ± 0.059
E9T	-0.102 ± 0.051
E9S	-0.103 ± 0.045
E9L	-0.223 ± 0.058

Variant	abundance fitness
T1Y	-0.155 ± 0.074
T1G	-0.118 ± 0.056
T1S	0.004 ± 0.078
T1R	0.104 ± 0.18
T1C	-0.35 ± 0.26
T1A	-0.474 ± 0.22
T1L	-0.128 ± 0.047
T1E	0.069 ± 0.11
T1W	-0.351 ± 0.2
T1I	-0.379 ± 0.27
T1V	-0.098 ± 0.089
T1M	-0.074 ± 0.16
K16H	-1.03 ± 0.34
K16V	-0.292 ± 0.052
K16Y	-0.902 ± 0.18
K16C	-0.245 ± 0.042
K16P	-1.11 ± 0.43
K16W	-0.802 ± 0.081
K16M	-0.206 ± 0.1
K16E	-0.327 ± 0.095
K16Q	-0.2 ± 0.1
K16F	-0.688 ± 0.27
K16G	-0.561 ± 0.045
K16S	-0.445 ± 0.044
K16L	-0.447 ± 0.079
K16D	-0.756 ± 0.17

Variant	abundance fitness
K16T	-0.49 ± 0.08
K16A	-0.474 ± 0.087
K16I	-0.134 ± 0.13
E3A	-0.425 ± 0.34
E3Q	-0.226 ± 0.41
E3P	-0.744 ± 0.33
L10W	-0.553 ± 0.068
L10K	-0.668 ± 0.2
L10G	-0.574 ± 0.055
L10T	-0.608 ± 0.096
L10C	-0.37 ± 0.1
L10I	-0.148 ± 0.15
L10P	-0.385 ± 0.1
L10D	-0.705 ± 0.16
L10M	-0.286 ± 0.076
L10S	-0.382 ± 0.069
L10R	-0.626 ± 0.066
L10Q	-0.296 ± 0.046
L10N	-0.574 ± 0.099
L10H	-0.751 ± 0.26
L10F	-0.345 ± 0.095
L10E	-0.654 ± 0.081
L10V	-0.221 ± 0.054
L10Y	-0.571 ± 0.23
L10A	-0.322 ± 0.072

Variants of: B2
Assay: as above
Settings: Homo sapiens

Variant	abundance fitness
K52P	-0.5 ± 0.2
K52T	0.473 ± 0.14
K52G	0.028 ± 0.099
K52Q	-0.482 ± 0.2
K52E	-0.288 ± 0.17
K52I	-1.1 ± 0.42
K52D	-0.038 ± 0.15
K52H	0.223 ± 0.3
K52R	-0.109 ± 0.13
K52F	-0.248 ± 0.22
K52L	-0.249 ± 0.14
K52S	-0.115 ± 0.14
K52A	-0.182 ± 0.13
K52W	-0.082 ± 0.17
K52C	-0.381 ± 0.23
K52V	-0.324 ± 0.12
K52N	-0.378 ± 0.29
K52M	0.083 ± 0.18
E53S	-0.548 ± 0.25
E53A	-0.246 ± 0.16
E53L	0.022 ± 0.29
E53K	-0.173 ± 0.4

Variant	abundance fitness
E53V	-0.29 ± 0.18
E53G	0.086 ± 0.13
E53C	0.222 ± 0.23
E53Y	-0.219 ± 0.43
E53R	-0.341 ± 0.16
E53W	-0.526 ± 0.23
E53D	0.016 ± 0.3
E51I	-0.387 ± 0.16
E51K	0.031 ± 0.2
E51T	0.088 ± 0.14
E51Y	-0.207 ± 0.21
E51H	-0.367 ± 0.23
E51L	-0.105 ± 0.1
E51C	-0.123 ± 0.19
E51D	-0.114 ± 0.15
E51G	-0.095 ± 0.1
E51W	-0.25 ± 0.18
E51P	-0.367 ± 0.15
E51Q	-0.005 ± 0.15
E51S	-0.365 ± 0.11
E51N	0.086 ± 0.19
E51V	-0.209 ± 0.099

Variant	abundance fitness
E51M	-0.401 ± 0.17
E51R	-0.396 ± 0.12
E51A	-0.12 ± 0.093
C50N	-0.498 ± 0.2
C50P	-0.499 ± 0.18
C50K	-0.405 ± 0.19
C50M	-1.01 ± 0.34
C50D	-0.626 ± 0.24
C50T	-0.409 ± 0.19
C50Q	-0.365 ± 0.17
C50E	0.025 ± 0.14
C50A	-0.503 ± 0.13
C50F	-0.654 ± 0.23
C50W	-0.718 ± 0.18
C50L	-0.575 ± 0.13
C50Y	-0.507 ± 0.17
C50H	0.231 ± 0.18
C50R	-0.71 ± 0.12
C50G	-0.55 ± 0.1
C50S	-0.416 ± 0.12
